Laboratory results as given in the nanobody polyreactivity screen of Harvey et al. (2022).

Assay: yeast display, Sf9 membrane polyspecificity reagent, FACS + sequencing; frameworks hold sequencing errors
How it was run: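 Nanobodies came from a synthetic yeast display library in Saccharomyces cerevisiae BJ5465, induced with galactose for 36–48 hours and stained for 1 hour at 4 °C with 10% biotinylated, detergent-solubilized Sf9 membrane reagent. Cells were enriched on streptavidin microbeads and then FACS-sorted, with low and high (top ~1%) gates set on anti-HA fluorescence for expression and streptavidin fluorescence for reagent binding. Each polyreactivity label reflects the gate a clone came from. Genes were amplified by colony PCR, sequenced by MiSeq 2 × 250 and filtered by CDR length.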

Sequence | polyreactivity (PSR sort gate)
QVQLVESGGGLVQAGGSLRLSCAASGLTFVDYAMGWYRQAPGKERELVAAITSSGGSITYYADSVKGRFTISRDNAKNTVYLQMNSLKPEDTAVYYCNADYGIYTDSFRGPDYESWGQGTQVTVSS | low polyreactivity
QVQLVESGGGLVQAGGSLRLSCAASGNIFRANPMGWYRQAPGKERELVASITVSGGSTNYADSVKGRFTISRDNAKNTVYLQMNSLKPEDTAVYYCAKTLTRSVKFSTVLLGPTPDYYWGQGTQVTVSS | high polyreactivity
QVQLVESGGGLVQAGGSLLLSCAASGLTFYPNAMGWYRQAPGKERELVAAISSSGDSTYSADSVKVRFTISRDNAKNTVYLQMNSLKPEDTAVYYCAADLGYYNARWYEYWGQGTQVTVSS | high polyreactivity
EVQLVESGGGLVQPGGILRVSCAASGYIYSRYRKGWYRQAPGKRREFVAAISGGSSTNYADSVKGRFTISRDNSKKTVYLQMNSLRAEDTAVYYCADSKIDSDPRVYWGQGYQVTVSS | low polyreactivity
QAQLEESGGGLVQAVGSLRLSCAASGRTFTNNDMGWYIQAPGKERELVAAIRWSGGSTYYADSVKGRFTISRDNAKNTVYFQMNSLKPEDTAVYYCAKGYGYVEAVIVQYDYWGQGTQVTVSS | low polyreactivity
QVQLVESGGGLVQAGGSLRLSCAASGFIFGRYAMGWYRQAPGKEREFVAAITWRGGNTYYADSVKGRFTISRDNAKNTVYLQMNSLKPEDTAVYYCAKKTAGHPWGPIYDYWGQGTQVTVSS | high polyreactivity
QVQLVESGGGLVQAGGSLRLSCAASGGIFSENAMGWYRQAPGKERELVAVITTSGGSTYYADSVKGRFTISRDNAKNTVYLQMNSLKPEDTAVYYCAADVLSWEYDYWGQGTQVTVSS | low polyreactivity
QVQLVESGGGLVQAGGSLRLSCAASGSIFSFYAMGWYRQAPGKERELVAGIDISGGSTYYADSVKGRFTISRDNAKNTVYLQMNSLKPEDTAVYYCAAAKRTDYFYFVAKSGFRYYSWGQGTQVTVSS | high polyreactivity
QVQLVESGGGLVQAGGSLRLSCAASGRIFWDNAMGWYRQAPGKERELVAAISGSGGNTYYADSVKGRFTISRDNAKNTVYLQMNSLKPEDTAVYYCNAYGHYTKRYRYGGWFDYWGQGTQVTVSS | low polyreactivity
QVQLVESGGGLVQAGGSLRLSCAASGRTFSVYAMGWYRQAPGKERELVARIRWSSGITYYADSVKGRFTISRDNAKNTVYLQMNSLKPEDTAVYYCAARYYTSATMDYWGQGTQVTVSS | high polyreactivity
QVQLVESGGGLVQAGGSLRLSCAASGRTFIVYAMGWYRQAPGKERELVAAISGRGGGNTYYADSVKGSFTISRDNAKNTVYLQMNSLKPEDTAVYYCAADTYSWYSYRDYYYWGQGTQVTVSS | low polyreactivity
QVQLVESGGGLVQAGGSLRLNCAASGSTFNRNAMGWYRQAPGKERELVATISSGGSTNYADSVKGRFTITRDNAKNTVYLLMISLYPEDTWVYYCAKRSLYRYYYWGQGSQVTVSS | high polyreactivity
QVQLVESGGGLVQAGGSLRLSCAASGYTSYTYTMGWYRQAPGKDRELVAAISRRSDSTYSDSVKGRVTISRDNAKNSVYLQMNSLKPEDTAVYYCAAVRVSYRSLSKSYYWGQGTQVTVSS | high polyreactivity
QVQLVESGGGLVQAGGSLRLSCAASGIILPKYSMGWYRQAPGKERELVAAITRSGGSTYYADSVKGRFTISRDNAKNTVYLQMNSLKPEDTAVYYCAARAANPTRTARYNYWGHGTQVTVSS | high polyreactivity
QVQLVESGGGLVQAGCSLLLSCAASGRLFSLNAMGWYRQAPGKERELVAAITRSAASTHYADSEKGRFTISRDNAKNTVYLQMNSLKPEDTAVYYCAARFWYDYRHYDYWGQGTEVTVSS | low polyreactivity
QVQLVDSGGGLVQAGGSLRLRCAASGLTFYTYAMGWYRQAPGKERELVAANRWRGGRTYYADSVKGRFTISRDNAKNTVYLQMNSLKPDDTAVYYCAADYSTLYKYDYWGQGTQVTVSS | low polyreactivity

Sequence | polyreactivity (PSR sort gate)
QDQLVESGGVLFQAGGSLRLTCAAYGRILYHYDMGWYRQAPGKERELVAAITRGAGTNYADSVKGRFTISRDNAKNTVYVQMNSLKPEDTAVYYCNADRFIVTRSRRGDYWGQGTQVTVSS | low polyreactivity
QVQLVESGGGLVQAGGSLRLSCAASGITFYRNAMGWYRQAPGKERELVAAISWSGGRTYYADSVKGRFTISRDNAKNTVYLQMNSLKPEDTAVYYCNKYTHYYDYDYWGQGTQVTVSS | high polyreactivity
QVQLVESWGGLVQAGGSLRLSCAASGFTFTSYAMGCYRQAPGKEREFVAGITKGGGNTYYSDSVKGRFTISRDNAKNTVYLHMNSLKPEDTEVYYCAADRSSFYLSHGTVDCYDYWGQATQVTVSS | low polyreactivity
QVQLVESGGGLVHAGGSLRLSCAASGYTFGNNAMGWYIQAPGKERELVASIRTNGGTTYYADSVKGRFTISRDNAKNTVYLQMNSLKPEDTAVYYCNAYRGYEYDYWGQGTQVTVSS | low polyreactivity
QVQLVESGGGLVQAGGSLRLSCAASGIIFYYYVMGCYRQAPGKERELVAAISRSGGRTRYADSVKGRFTISRDNAKNTVYLQMNSLKPEDTAVYYCAAVGSVNYDADFDYWGQGTQVTVSS | high polyreactivity
QVQLVESGGGLVQAGGSLRLSCAASGGIFAYNAMGWYRQAPGKERELVASISSGGNTYYADSVKGRFTISRDNAKNTVYLQMNSLKPEDTAVYYCNARFYRSWRRFSREPGYNYWGQGTQVTVSS | high polyreactivity
QVQSEESGGGLVQAGGSLRLSCAASGLIFDGYSMGWNRQAPGKERELVAAITRSGASTSYADSVKGRFTISRDNAKNTVYLQMNSLKPDDTAVYYCAAKVHTFYYHYYSWGQGTQVTVSS | high polyreactivity
QVQLVESGGGLVQAGGSLRLSCAASGRILYSYPMGGYRQAPGKERELVASISLSGGRTYADSVKGRFTISRDNAKNTVFLQMNSLKPVDTAVYYCNARIRTSRYLWPFDYWGQGTQVTVSS | high polyreactivity
QVQLVESGGGLVQAGGSIRLSCAASGRIFGRYAMGWYRQAPGKEMELVATITWRGGITYYADSVKGRFTISRDNAKNTVYLQLKRLKPEDNAVYYCAAGYGRIPYEYWGQGTQVTVSS | high polyreactivity
QVQLVESGGGLVQAGGSLRLSCAASGSTFPPNAMGWYRQAPGKEGELVADSSDSSTYYADSVKGRFTISRDNAKNTVYLQMNSLKPEDTAVYYCAAADAGLSSKSYGQQYDYWGQGTQVTVSS | low polyreactivity
QVQLVESGGGLVQAGGSLRLSCAASGSIFFQNAMGWYRQAPGKESEFVAAITWRGASTYYADSVKGRFTISRDNATNTVYLQMNSLKPEDTAVYYCAARQHYYYGWYYYWGQGTQVTVSS | high polyreactivity
QVQLVESGGGLVPAGGSLRLSCAASGSTFIAYTRGWYRKAPGKERELVAAISGTGGTTYADSVKGRFTISRDNAKNTVYLQMNSLKPEDTAVYYCAAQYRYTYWGQATQVTVSS | low polyreactivity
QVQLVESGGGLVQAGGSLRLSCAASGNTFTWYTMGWYRQAPGKERELVAAISSSGGNTYYADSVKGRFTISRDNAKNTVYLQMNSLKPEDTAVYYCAADLSSAYGHDYRGQGTQVTVSS | low polyreactivity
QVQLVESGGGLVQAGGSLRLICAPSGITFYPYSMGWSRQAPGKERELVAAISGGTNTHYADSVKGRFTISRDNAKNTDYLQMNSLKPVDTAVYYCAAGIDFRRTTSYSFWFDYWGQGTQVTVSS | high polyreactivity
QVQLVESGGGLVQAGGSLRLSCAASGLIFARNAMGWYRQAPGKERELVAAISRSGSTNYADSVKGRFTISRDNAKNTVYLQMNSLIPEDTAVYYCAAGPWGTGHYVQGPVYYYRYDYWGQGTQVTVSS | low polyreactivity
